From patent publication US6897054

T1: myc-tagged H37 protein
T1 chain: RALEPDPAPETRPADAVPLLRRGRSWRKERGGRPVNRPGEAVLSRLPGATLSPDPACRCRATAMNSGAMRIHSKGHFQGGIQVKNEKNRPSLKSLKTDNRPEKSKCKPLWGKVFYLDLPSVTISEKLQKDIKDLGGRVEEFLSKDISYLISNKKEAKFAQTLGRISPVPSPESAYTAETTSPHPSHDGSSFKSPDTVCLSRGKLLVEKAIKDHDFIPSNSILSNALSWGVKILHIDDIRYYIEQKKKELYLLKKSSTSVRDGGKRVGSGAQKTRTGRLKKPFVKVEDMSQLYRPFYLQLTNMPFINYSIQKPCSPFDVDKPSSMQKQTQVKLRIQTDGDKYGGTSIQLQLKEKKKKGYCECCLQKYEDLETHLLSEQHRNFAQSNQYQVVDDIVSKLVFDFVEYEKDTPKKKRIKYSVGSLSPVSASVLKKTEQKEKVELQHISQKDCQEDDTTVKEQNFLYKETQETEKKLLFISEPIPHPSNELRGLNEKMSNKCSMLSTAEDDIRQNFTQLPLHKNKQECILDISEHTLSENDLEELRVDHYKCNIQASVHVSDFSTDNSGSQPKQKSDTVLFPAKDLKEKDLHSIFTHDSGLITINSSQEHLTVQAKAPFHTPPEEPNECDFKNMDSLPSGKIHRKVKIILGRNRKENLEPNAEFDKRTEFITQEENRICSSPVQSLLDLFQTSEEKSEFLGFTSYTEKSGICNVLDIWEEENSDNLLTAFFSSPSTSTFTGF


Legend:
myc-tagged H37 protein = target: T1, myc-tagged H37 protein
[1] = target: huCdc7 fused to DNA-binding domain of Gal4 (human); assay: yeast two-hybrid assay, lacZ activity

Binder	in vitro kinase reaction of huCdc7/H37 immunoprecipitates with GST-MCM3 fusion protein as substrate (myc-tagged H37 protein)	binding ability with huCdc7 relative to full-length H37 [1]
huCdc7 (protein) MEASLGIQMDEPMAFSPQRDRFQAEGSLKKNEQNFKLAGVKKDIEKLYEAVPQLSNVFKIEDKIGEGTFSSVYLATAQLQVGPEEKIALKHLIPTSHPIRIAAELQCLTVAGGQDNVMGVKYCFRKNDHVVIAMPYLEHESFLDILNSLSFQEVREYMLNLFKALKRIHQFGIVHRDVKPSNFLYNRRLKKYALVDFGLAQGTHDTKIELLKFVQSEAQQERCSQNKSHIITGNKIPLSGPVPKELDQQSTTKASVKRPYTNAQIQIKQGKDGKEGSVGLSVQRSVFGERNFNIHSSISHESPAVKLMKQSKTVDVLSRKLATKKKAISTKVMNSAVMRKTASSCPASLTCDCYATDKVCSICLSRRQQVAPRAGTPGFRAPEVLTKCPNQTTAIDMWSAGVIFLSLLSGRYPFYKASDDLTALAQIMTIRGSRETIQAAKTFGKSILCSKEVPAQDLRKLCERLRGMDSSTPKLTSDIQGHASHQPAISEKTDHKASCLVQTPPGQYSGNSFKKGDSNSCEHCFDEYNTNLEGWNEVPDEAYDLLDKLLDLNPASRITAEEALLHPFFKDMSL	phosphorylation in a good efficiency was observed for the MCM3 protein in both immunoprecipitate of anti-huCdc7 antibody and immunoprecipitate of anti-myc antibody	–
H37 deletion derivative ΔC fused to Gal4 activation domain (protein, not shown: large carriers) MNSGAMRIHSKGHFQGGIQVKNEKNRPSLKSLKTDNRPEKSKCKPLWGKVFYLDLPSVTISEKLQKDIKDLGGRVEEFLSKDISYLISNKKEAKFAQTLGRISPVPSPESAYTAETTSPHPSHDGSSFKSPDTVCLSRGKLLVEKAIKDHDFIPSNSILSNALSWGVKILHIDDIRYYIEQKKKELYLLKKSSTSVRDGGKRVGSGAQKTRTGRLKKPFVKVEDMSQLYRPFYLQLTNMPFINYSIQKPCSPFDVDKPSSMQKQTQVKLRIQTDGDKYGGTSIQLQLKEKKKKGYCECCLQKYEDLETHLLSEQHRNFAQSNQYQVVDDIVSKLVFDFVEYEKDTPKKKRIKYSVGSLSPVSASVLKKTEQKEKVELQHISQKDCQEDDTTVKEQNFLYKETQETEKKLLFISEPIPHPSNELRGLNEKMSNKCSMLSTAEDDIRQNFTQLPLHKNKQECILDISEHTLSENDLEELRVDHYKCNIQASVHVSDFSTDNSGSQPKQKSDTVLFPAKDLKEKDLHSIFTHDSGLITINSSQEHLTVQAKAPFHTPPEEPNECDFKNMDSLPSGKIHRKVKIILGRNRKENLEPNAEFDKRTEFITQEENRICSSPVQSLLDLFQTSEEKSEFLGFTSYTEKSGICNVLDIWEEEN	–	60%
